According to patent US20260125460A1 (Eli Lilly, published 2026):

What was measured:
human IL-34 [1] = biological target: T1, human IL-34 (human, UniProt Q6ZMJ4 21-242); assay: cell-based or functional assay
T1 sequence: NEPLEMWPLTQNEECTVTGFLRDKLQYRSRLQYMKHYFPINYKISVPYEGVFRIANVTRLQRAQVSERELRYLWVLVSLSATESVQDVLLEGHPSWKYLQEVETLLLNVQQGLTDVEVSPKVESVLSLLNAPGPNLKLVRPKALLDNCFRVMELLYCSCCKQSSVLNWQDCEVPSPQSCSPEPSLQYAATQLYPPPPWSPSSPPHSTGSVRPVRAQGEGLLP

human IL-34 [2] = biological target: T1, human IL-34; assay: competition ELISA; displacement of biotinylated human IL-34 (3.7 nM) from plate-bound hCSF1R_Fc
Experimental: (§1) CSF1R extracellular domain proteins (hCSF1R_Fc commercially available from R&D Cat #329-MR, cynomolgus CSF1R ECD-Fc (AAA is a linker between CSF1R extracellular domain and Fc) (SEQ ID NO: 34)) can be bound to an ELISA plate at concentrations of 30 nM in order to capture soluble biotinylated IL-34 and allowed to bind for one hour. After washing and blocking plate, biotinylated IL-34 may be added, then detected via streptavidin conjugated peroxidase. Concentrations of labeled IL-34 near the 80% binding level (EC₈₀) (3.7 nM) may be used in conjunction with a range of antibody concentrations (0-100 nM) to determine concentration of antibody required to displace IL-34 from CSF1R. After 1 hr incubation, IL-34 bound to CSF1R is detected via streptavidin conjugated peroxidase. The antibodies are assayed (n=2) and the average and standard deviation at each concentration are calculated. The potency of an antibody to displace IL-34 from CSF1R is reported as IC₅₀ (nM) with the calculated confidence interval (CI) in Table 4 and Table 5.

cynomolgus monkey IL-34 [3] = biological target: T2, cynomolgus monkey IL-34 (cynomolgus monkey, UniProt G7Q1L3 21-242); assay: competition ELISA; displacement of biotinylated cyno IL-34 from plate-bound cynomolgus CSF1R ECD-Fc
T2 construct: Biotinylated in the displacement ELISA; also called cyno IL-34
T2 sequence: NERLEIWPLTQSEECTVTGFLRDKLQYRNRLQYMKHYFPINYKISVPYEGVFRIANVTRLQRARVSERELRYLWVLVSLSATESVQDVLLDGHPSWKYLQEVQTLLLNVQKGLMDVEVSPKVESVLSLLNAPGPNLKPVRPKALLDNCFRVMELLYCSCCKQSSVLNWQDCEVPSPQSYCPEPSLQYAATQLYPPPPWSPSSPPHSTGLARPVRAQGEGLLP
Experimental: as §1

human IL-34 [4] = biological target: T1, human IL-34; assay: SPR, BIAcore 8K, 37 C; antibody captured on Protein A chip, IL-34 in flow; 1:1 fit; average of at least three experiments
Experimental: (§2) Binding affinity of anti-IL-34 monoclonal antibodies of the present disclosure to human and/or cynomolgus monkey (cyno) IL-34 may be determined by methods known in the art. […] For each cycle, 200 μL IL-34 is flowed over the immobilized antibody at 100 μL/minute, and then dissociated for 20 minutes. The chip surface is regenerated with 50 μL of glycine buffer at pH 1.5 at a flow rate of 100 μL/minute. The data are fit to a 1:1 Langmiur binding mode to derive kon, koff and to calculate KD.

cynomolgus monkey IL-34 [5] = biological target: T2, cynomolgus monkey IL-34; assay: as above
Experimental: as §2

IC50 (ug/ml), neutralization of human IL-34 (100 ng/ml) induced luciferase reporter activity in hCSF1R expressing 293 SRE cells (human IL-34 [1]): 0.0533 µg/mL
IC50 (human IL-34 [2]): 0.0657 nM
IC50 (cynomolgus monkey IL-34 [3]): 1.41 nM
Kd (human IL-34 [4]): 0.0338 nM
koff (human IL-34 [4]): 0.00019 s⁻¹
kon (human IL-34 [4]): 5.6e+06 M⁻¹ s⁻¹
Kd (cynomolgus monkey IL-34 [5]): 0.039 nM
koff (cynomolgus monkey IL-34 [5]): 0.00031 s⁻¹
kon (cynomolgus monkey IL-34 [5]): 8.1e+06 M⁻¹ s⁻¹
B1: Antibody 1 (antibody, human IgG4 S228P, kappa, F234A L235A, V domains shown)
VH: EVQLLESGGGLVQPGGSLRLSCAASGFAFSNYAMSWVRQAPGKGLEWVSAISASGGKTYYADSVKGRFTISRDNSKNTLYLQMNSLRAEDTAVYYCAKRGYLWHAFDHWGRGTLVTVSS
VL: EIVLTQSPGTLSLSPGERATLSCRASQSVYSSYLAWYQQKPGQAPRLLIYGASSRATGIPDRFSGSGSGTDFTLTISRLEPEDFAVYYCQVVGSSPPFTFGGGTKVEIKR
notes: Human anti-human IL-34 antibody; IgG4 PAA hinge/Fc without the C-terminal lysine; also called Exemplified Antibody 1; exemplified antibody 1
